The text below walks through data of paper doi:10.1101/411223 (bioRxiv, 2018).

For one assay, the target named is T1, Kap95p (S. cerevisiae, UniProt Q06142 1-861).
T1 sequence (looked up): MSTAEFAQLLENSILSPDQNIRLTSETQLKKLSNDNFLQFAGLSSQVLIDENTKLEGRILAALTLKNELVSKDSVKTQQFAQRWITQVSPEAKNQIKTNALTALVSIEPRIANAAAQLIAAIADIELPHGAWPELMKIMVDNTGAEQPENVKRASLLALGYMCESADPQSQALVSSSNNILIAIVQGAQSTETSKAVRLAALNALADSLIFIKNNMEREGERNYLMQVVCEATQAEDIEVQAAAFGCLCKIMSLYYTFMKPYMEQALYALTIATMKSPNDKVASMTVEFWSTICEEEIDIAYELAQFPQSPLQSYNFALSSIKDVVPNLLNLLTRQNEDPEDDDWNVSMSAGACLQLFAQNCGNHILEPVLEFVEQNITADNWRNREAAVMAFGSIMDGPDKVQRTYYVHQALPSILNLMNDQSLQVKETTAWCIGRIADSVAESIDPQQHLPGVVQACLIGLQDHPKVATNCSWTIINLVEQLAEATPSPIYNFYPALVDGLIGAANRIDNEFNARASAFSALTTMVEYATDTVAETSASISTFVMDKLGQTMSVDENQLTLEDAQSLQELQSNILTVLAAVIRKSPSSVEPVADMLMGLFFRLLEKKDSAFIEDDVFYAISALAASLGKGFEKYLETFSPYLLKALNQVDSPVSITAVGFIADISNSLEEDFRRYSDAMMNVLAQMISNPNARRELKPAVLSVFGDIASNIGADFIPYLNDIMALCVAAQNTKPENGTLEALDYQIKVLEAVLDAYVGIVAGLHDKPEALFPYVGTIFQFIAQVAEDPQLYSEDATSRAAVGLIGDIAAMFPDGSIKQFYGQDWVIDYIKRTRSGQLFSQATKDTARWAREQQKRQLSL
Nature of the assay: ITC. Background: Isothermal titration calorimetry measures the heat released or taken up as one component is titrated into another.

The target of a further assay is T2, Kap121p (S. cerevisiae, UniProt P32337 1-1089).
T2 sequence (looked up): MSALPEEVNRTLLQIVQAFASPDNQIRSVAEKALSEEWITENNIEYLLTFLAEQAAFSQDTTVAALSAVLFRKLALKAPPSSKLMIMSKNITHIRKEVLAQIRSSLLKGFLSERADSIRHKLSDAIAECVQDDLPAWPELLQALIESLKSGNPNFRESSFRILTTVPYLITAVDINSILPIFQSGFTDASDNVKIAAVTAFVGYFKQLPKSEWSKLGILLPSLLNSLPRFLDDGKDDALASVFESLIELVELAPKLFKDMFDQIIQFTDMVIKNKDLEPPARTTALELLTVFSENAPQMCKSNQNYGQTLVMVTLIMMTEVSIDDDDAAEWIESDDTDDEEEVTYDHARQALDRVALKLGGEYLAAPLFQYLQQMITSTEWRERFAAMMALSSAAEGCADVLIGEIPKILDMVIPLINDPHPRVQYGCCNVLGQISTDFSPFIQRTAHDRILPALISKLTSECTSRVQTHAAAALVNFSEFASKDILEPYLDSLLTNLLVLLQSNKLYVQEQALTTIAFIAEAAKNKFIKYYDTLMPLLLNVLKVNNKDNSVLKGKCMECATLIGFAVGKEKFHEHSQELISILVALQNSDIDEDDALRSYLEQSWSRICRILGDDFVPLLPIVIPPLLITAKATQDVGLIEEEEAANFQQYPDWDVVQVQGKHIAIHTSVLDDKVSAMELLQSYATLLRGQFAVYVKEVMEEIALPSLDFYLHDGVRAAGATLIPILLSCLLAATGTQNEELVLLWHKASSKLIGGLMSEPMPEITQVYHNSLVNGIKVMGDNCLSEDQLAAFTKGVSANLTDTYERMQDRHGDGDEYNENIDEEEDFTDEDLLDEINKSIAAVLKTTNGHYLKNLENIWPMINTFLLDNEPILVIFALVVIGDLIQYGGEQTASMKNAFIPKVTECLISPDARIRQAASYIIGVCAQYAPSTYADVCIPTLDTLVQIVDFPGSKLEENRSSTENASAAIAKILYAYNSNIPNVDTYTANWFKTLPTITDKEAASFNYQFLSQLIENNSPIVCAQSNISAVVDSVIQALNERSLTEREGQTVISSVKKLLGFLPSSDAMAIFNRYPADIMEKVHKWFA
Briefly: ITC.

B1: yTBP (61-240) (domain or fragment, S. cerevisiae, UniProt P13393 61-240, looked up)
chain: SGIVPTLQNIVATVTLGCRLDLKTVALHARNAEYNPKRFAAVIMRIREPKTTALIFASGKMVVTGAKSEDDSKLASRKYARIIQKIGFAAKFTDFKIQNIVGSCDVKFPIRLEGLAFSHGTFSSYEPELFPGLIYRMVKPKIVLLIFVSGKIVLTGAKQREEIYQAFEAIYPVLSEFRKM
The Kd is the equilibrium constant for the complex coming apart. Read a high Kd as lower affinity. For the molecule B1, the Kd with Kap95p is about 10 µM; in the assay with Kap121p, about 15 µM.
